Patent US20240409906, “INTEGRASES, LANDING PAD ARCHITECTURES, AND ENGINEERED CELLS COMPRISING THE SAME” (Asimov Inc., published 2024)

Assays:
Assay in all cases: cell_activity; attB x attP EGFP inversion reporter, HEK293FT
[1] = target: T1, Int32 (Rhodococcus jostii RHA1); conditions: tags: C-terminal GS linker-SV40 NLS; chain copies: 4
T1 chain: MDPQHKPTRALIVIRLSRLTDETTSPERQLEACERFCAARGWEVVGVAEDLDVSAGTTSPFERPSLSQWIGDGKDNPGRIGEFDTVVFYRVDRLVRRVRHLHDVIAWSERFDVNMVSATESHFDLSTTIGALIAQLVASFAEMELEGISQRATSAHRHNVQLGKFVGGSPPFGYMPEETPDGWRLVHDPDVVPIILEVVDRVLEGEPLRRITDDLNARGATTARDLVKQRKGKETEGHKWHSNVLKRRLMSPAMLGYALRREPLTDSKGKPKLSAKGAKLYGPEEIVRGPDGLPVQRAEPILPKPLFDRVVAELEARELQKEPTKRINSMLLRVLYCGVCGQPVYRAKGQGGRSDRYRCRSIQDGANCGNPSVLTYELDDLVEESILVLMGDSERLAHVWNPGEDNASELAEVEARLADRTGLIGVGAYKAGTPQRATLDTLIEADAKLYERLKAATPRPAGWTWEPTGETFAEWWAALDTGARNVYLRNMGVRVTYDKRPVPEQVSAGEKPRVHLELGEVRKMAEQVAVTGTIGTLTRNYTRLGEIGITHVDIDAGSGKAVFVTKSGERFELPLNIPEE

[2] = target: T2, Int34 (Staphylococcus lugdunensis HKU09-01); conditions: tags: C-terminal GS linker-SV40 NLS; chain copies: 4
T2 chain: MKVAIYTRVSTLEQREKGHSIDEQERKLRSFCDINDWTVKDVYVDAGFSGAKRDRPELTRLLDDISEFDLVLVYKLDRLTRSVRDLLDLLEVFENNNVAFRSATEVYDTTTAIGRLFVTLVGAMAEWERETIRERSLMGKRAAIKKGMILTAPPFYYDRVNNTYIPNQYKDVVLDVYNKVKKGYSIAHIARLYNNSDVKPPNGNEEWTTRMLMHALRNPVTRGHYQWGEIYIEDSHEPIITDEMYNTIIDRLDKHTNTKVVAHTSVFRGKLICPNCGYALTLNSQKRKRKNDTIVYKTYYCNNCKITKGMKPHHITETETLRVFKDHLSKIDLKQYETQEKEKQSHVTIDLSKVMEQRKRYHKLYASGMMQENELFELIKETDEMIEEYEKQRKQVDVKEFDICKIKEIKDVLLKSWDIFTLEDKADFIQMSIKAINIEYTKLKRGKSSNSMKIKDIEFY

[3] = target: T3, Int27 (Lactococcus lactis subsp. lactis CV56); conditions: tags: C-terminal GS linker-SV40 NLS
T3 chain: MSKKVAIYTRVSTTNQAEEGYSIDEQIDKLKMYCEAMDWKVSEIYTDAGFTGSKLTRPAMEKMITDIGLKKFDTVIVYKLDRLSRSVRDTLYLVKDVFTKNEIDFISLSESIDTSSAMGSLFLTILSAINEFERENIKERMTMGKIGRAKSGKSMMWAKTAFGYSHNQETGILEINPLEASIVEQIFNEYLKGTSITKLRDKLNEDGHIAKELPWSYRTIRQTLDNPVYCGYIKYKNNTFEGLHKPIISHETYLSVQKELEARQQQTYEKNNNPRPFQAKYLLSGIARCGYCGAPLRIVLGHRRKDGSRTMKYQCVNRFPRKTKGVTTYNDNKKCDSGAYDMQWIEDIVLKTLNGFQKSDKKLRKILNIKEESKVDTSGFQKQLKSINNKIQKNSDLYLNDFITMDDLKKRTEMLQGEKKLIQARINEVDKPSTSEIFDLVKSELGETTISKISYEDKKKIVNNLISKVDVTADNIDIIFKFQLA

[4] = target: T4, Int5 (Streptomyces phage PhiK38-1); conditions: tags: C-terminal GS linker-SV40 NLS
T4 chain: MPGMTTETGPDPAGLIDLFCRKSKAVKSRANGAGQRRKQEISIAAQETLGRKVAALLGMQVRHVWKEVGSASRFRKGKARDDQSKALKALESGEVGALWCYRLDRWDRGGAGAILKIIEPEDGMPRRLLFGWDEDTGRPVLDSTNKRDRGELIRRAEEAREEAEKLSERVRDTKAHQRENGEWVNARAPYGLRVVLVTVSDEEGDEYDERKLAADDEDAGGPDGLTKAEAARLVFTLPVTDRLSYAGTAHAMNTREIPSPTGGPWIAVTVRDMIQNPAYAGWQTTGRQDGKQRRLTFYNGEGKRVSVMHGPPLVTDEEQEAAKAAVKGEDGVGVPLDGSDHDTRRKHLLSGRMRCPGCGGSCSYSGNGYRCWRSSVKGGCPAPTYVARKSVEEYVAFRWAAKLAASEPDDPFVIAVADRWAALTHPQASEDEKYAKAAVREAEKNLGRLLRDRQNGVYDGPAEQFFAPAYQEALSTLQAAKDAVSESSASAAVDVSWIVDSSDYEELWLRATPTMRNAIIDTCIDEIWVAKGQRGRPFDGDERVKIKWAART

[5] = target: T5, Int7 (Geobacillus sp. Y412MC61); conditions: tags: C-terminal GS linker-SV40 NLS
T5 chain: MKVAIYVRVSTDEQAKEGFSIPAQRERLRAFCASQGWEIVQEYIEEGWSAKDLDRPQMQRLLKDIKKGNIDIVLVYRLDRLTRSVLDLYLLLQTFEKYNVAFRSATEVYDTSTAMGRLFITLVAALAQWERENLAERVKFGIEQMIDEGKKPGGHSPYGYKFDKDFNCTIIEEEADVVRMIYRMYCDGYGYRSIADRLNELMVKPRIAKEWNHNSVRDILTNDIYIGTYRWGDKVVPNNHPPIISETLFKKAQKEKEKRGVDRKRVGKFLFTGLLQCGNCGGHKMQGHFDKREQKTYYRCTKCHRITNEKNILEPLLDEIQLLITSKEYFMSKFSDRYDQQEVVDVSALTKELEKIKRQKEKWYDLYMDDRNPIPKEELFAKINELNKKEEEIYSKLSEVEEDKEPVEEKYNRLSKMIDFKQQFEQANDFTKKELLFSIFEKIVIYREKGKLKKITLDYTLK

B1: Int32 attP (dsDNA)
DNA 1: CTATGTGGTGGTAATAGCGAGTAGGGGACTACTCGCTCCAGGTACATTAACACCATGGA
DNA 2: TCCATGGTGTTAATGTACCTGGAGCGAGTAGTCCCCTACTCGCTATTACCACCACATAG
[1]
  binding signal: 0.137 fraction of Bxb1

B2: Int34 attB (dsDNA)
DNA 1: AATCTGCAAACATGTATGGCGGTACATGTATCAACATTGGTTGTATTCCTACAAAGACACTCAT
DNA 2: ATGAGTGTCTTTGTAGGAATACAACCAATGTTGATACATGTACCGCCATACATGTTTGCAGATT
[2]
  binding signal: 0.408 fraction of Bxb1

B3: Int27 attB (dsDNA)
DNA 1: AATACTAATAATAGCTAGTACAATTAACATCTCTATCAAAGTAAAAGCTTTTAGCTCTTTCT
DNA 2: AGAAAGAGCTAAAAGCTTTTACTTTGATAGAGATGTTAATTGTACTAGCTATTATTAGTATT
[3]
  binding signal: 2.2 fraction of Bxb1

B4: Int5 attB (dsDNA)
DNA 1: GAGCGCCGGATCAGGGAGTGGACGGCCTGGGAGCGCTACACGCTGTGGCTGCGGTCGGTGC
DNA 2: GCACCGACCGCAGCCACAGCGTGTAGCGCTCCCAGGCCGTCCACTCCCTGATCCGGCGCTC
[4]
  binding signal: 0.152 fraction of Bxb1

B5: Int7 attP (dsDNA)
DNA 1: GTGTTATAAACCTGTGTGAGAGTTAAGTTTACATGCCTAACCTTAACTTTTACGCAGGTTCAGCTT
DNA 2: AAGCTGAACCTGCGTAAAAGTTAAGGTTAGGCATGTAAACTTAACTCTCACACAGGTTTATAACAC
[5]
  binding signal: 0.096 fraction of Bxb1

B6: Int32 attB (dsDNA)
DNA 1: ATCGCGCAGAACGGTGCGGTGATCAGTGAGTACGCACCGGGCACGACACCGGCGAAGCATCG
DNA 2: CGATGCTTCGCCGGTGTCGTGCCCGGTGCGTACTCACTGATCACCGCACCGTTCTGCGCGAT
[1]
  binding signal: 0.137 fraction of Bxb1

B7: Int7 attB (dsDNA)
DNA 1: AGACGAGAAACGTTCCGTCCGTCTGGGTCAGTTGGGCAAAGTTGATGACCGGGTCGTCCGTT
DNA 2: AACGGACGACCCGGTCATCAACTTTGCCCAACTGACCCAGACGGACGGAACGTTTCTCGTCT
[5]
  binding signal: 0.096 fraction of Bxb1

B8: Int34 attP (dsDNA)
DNA 1: ATTTTTGTACGGAAGTAGATACTATCTTTCAATATCCATGTTACTTAGTGCCATACAAAAA
DNA 2: TTTTTGTATGGCACTAAGTAACATGGATATTGAAAGATAGTATCTACTTCCGTACAAAAAT
[2]
  binding signal: 0.408 fraction of Bxb1

B9: Int5 attP (dsDNA)
DNA 1: CCCTAATACGCAAGTCGATAACTCTCCTGGGAGCGTTGACAACTTGCGCACCCTGATCTG
DNA 2: CAGATCAGGGTGCGCAAGTTGTCAACGCTCCCAGGAGAGTTATCGACTTGCGTATTAGGG
[4]
  binding signal: 0.152 fraction of Bxb1
